{"source": "paper PMC5531659", "about": "“Small molecule perturbation of the CAND1-Cullin1-ubiquitin cycle stabilizes p53 and triggers Epstein-Barr virus reactivation” (PLoS Pathogens, 2017)", "target": "T1, Cullin 1 (human (endogenous in Mutu I and 293T), UniProt Q13616 1-776)", "T1 construct": "Cullin 1, human, endogenous protein of Mutu I and 293T cells; Neddylated and deneddylated forms are seen on blots; also called Cul1; Cul 1; source: endogenous, Mutu I lysate; endogenous, 293T lysate", "T1 sequence (Q13616 whole entry)": "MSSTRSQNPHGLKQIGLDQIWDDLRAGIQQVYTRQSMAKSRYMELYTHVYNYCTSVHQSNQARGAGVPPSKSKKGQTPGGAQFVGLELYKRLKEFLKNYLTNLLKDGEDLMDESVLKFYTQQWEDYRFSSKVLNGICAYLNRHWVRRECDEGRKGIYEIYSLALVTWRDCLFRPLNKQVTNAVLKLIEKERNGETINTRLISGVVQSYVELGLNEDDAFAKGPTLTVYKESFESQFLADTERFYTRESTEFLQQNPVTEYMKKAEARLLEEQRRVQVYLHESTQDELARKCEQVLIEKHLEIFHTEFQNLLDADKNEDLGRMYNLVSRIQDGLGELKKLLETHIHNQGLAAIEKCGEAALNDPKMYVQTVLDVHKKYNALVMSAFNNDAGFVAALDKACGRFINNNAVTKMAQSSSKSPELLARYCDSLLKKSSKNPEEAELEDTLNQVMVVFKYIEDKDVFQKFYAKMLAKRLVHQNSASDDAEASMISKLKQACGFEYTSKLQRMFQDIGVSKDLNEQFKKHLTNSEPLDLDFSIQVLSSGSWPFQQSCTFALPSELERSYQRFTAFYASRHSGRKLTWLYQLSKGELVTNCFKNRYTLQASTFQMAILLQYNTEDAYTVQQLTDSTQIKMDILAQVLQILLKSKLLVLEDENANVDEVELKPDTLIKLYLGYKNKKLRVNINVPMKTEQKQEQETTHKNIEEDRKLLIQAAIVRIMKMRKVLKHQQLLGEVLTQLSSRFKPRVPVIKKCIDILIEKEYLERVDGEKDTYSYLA", "assay": "co-IP; Mutu I total cell lysates (cells treated with DMSO or C60 for 48 hrs); IP with antibody to Cullin 1, CAND1 or IgG on protein A beads in SDS-free lysis buffer (50 mM Tris-HCl pH 7.6, 120 mM NaCl, 0.1% NP40, 1 mM EDTA), overnight 4°C; Western blot for Cullin 1 or CAND1", "details": "partners not purified"}
{"binder": "Cullin-associated and neddylation-dissociated 1 (CAND1) (natural protein, human (endogenous in Mutu I and 293T), UniProt Q86VP6 1-1230, looked up, CAND1, human, endogenous protein of Mutu I and 293T cells; also called TIP120A; source: endogenous, Mutu I lysate; endogenous, 293T lysate) MASASYHISNLLEKMTSSDKDFRFMATNDLMTELQKDSIKLDDDSERKVVKMILKLLEDKNGEVQNLAVKCLGPLVSKVKEYQVETIVDTLCTNMLSDKEQLRDISSIGLKTVIGELPPASSGSALAANVCKKITGRLTSAIAKQEDVSVQLEALDIMADMLSRQGGLLVNFHPSILTCLLPQLTSPRLAVRKRTIIALGHLVMSCGNIVFVDLIEHLLSELSKNDSMSTTRTYIQCIAAISRQAGHRIGEYLEKIIPLVVKFCNVDDDELREYCIQAFESFVRRCPKEVYPHVSTIINICLKYLTYDPNYNYDDEDEDENAMDADGGDDDDQGSDDEYSDDDDMSWKVRRAAAKCLDAVVSTRHEMLPEFYKTVSPALISRFKEREENVKADVFHAYLSLLKQTRPVQSWLCDPDAMEQGETPLTMLQSQVPNIVKALHKQMKEKSVKTRQCCFNMLTELVNVLPGALTQHIPVLVPGIIFSLNDKSSSSNLKIDALSCLYVILCNHSPQVFHPHVQALVPPVVACVGDPFYKITSEALLVTQQLVKVIRPLDQPSSFDATPYIKDLFTCTIKRLKAADIDQEVKERAISCMGQIICNLGDNLGSDLPNTLQIFLERLKNEITRLTTVKALTLIAGSPLKIDLRPVLGEGVPILASFLRKNQRALKLGTLSALDILIKNYSDSLTAAMIDAVLDELPPLISESDMHVSQMAISFLTTLAKVYPSSLSKISGSILNELIGLVRSPLLQGGALSAMLDFFQALVVTGTNNLGYMDLLRMLTGPVYSQSTALTHKQSYYSIAKCVAALTRACPKEGPAVVGQFIQDVKNSRSTDSIRLLALLSLGEVGHHIDLSGQLELKSVILEAFSSPSEEVKSAASYALGSISVGNLPEYLPFVLQEITSQPKRQYLLLHSLKEIISSASVVGLKPYVENIWALLLKHCECAEEGTRNVVAECLGKLTLIDPETLLPRLKGYLISGSSYARSSVVTAVKFTISDHPQPIDPLLKNCIGDFLKTLEDPDLNVRRVALVTFNSAAHNKPSLIRDLLDTVLPHLYNETKVRKELIREVEMGPFKHTVDDGLDIRKAAFECMYTLLDSCLDRLDIFEFLNHVEDGLKDHYDIKMLTFLMLVRLSTLCPSAVLQRLDRLVEPLRATCTTKVKANSVKQEFEKQDELKRSAMRAVAALLTIPEAEKSPLMSEFQSQISSNPELAAIFESIQKDSSSTNLESMDTS", "values": [{"measurement": "fold decrease of the association in C60-treated against DMSO-treated cells", "result": "~5", "unit": "fold"}]}
